Reference: patent publication US20200199244A1 (published 2020)
Substitutions are numbered along the chain they refer to. Blank lines part the entries; values can stand above or below the binder they belong to.

Molecular target: human CD40 (human, UniProt P25942 21-277)
Assay: cell-based or functional assay

Sequence of human CD40 (P25942 21-277 limits assumed): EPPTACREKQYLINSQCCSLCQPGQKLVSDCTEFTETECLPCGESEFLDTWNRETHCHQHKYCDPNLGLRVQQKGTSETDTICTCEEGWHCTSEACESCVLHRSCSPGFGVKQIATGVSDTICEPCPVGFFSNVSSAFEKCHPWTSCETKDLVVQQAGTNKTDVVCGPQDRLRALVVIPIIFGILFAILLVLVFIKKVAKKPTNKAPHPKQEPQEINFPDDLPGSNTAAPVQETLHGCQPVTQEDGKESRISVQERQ

CHO-hCD40L-driven DC Activation IL-12 EC50: 0.93 nM | CHO-hCD40L-driven Human B Cell Proliferation EC50: 11 nM | T-B cell MLR EC50: 7.25 nM | hIZCD40L-driven Human B Cell Proliferation EC50: 0.12 nM
B3: BMS3h-56-201 (other)
VH: EVQLLESGGGLVQPGGSLRLSCAASGFTFRDYEMWWVRQAPGKGLERVSAINPQGTRTYYADSVKGRFTISRDNSKNTLYLQMNSLRAEDTAVYYCAKLPFYFQEWGQGTLVTVSS

CHO-hCD40L-driven Human B Cell Proliferation EC50: 326 nM | T-B cell MLR EC50: 276 nM | hIZCD40L-driven Human B Cell Proliferation EC50: 3 nM
B4: BMS3h-56-2 (other)
VH: B3 VH with Y102T, Q104D, E105D

CHO-hCD40L-driven DC Activation IL-12 EC50: 2.9 nM | CHO-hCD40L-driven Human B Cell Proliferation EC50: 39 nM | T-B cell MLR EC50: 50 nM | hIZCD40L-driven Human B Cell Proliferation EC50: 0.6 nM
B5: BMS3h-56-202 (other)
VH: B3 VH with F101T, Q104S, E105D, W106R

hIZCD40L-driven Human B Cell Proliferation EC50: 104 nM
B6: BMS3h-41-1 (other)
VH: EVQLLESGEGLVQPGGSLRLSCAASGFTFTEHEMIWVRQAPGKGLEWVSSISGNGANTYYADSVKGRFTISRDNSKNTLYLQMNSLRPEDTAVYYCAKEPLRFDYWGQGTLVTVSS

hIZCD40L-driven Human B Cell Proliferation EC50: 53 nM
B10: BMS3h-43-1 (other)
VH: EVQLLESGGGLVQPGGSLRLSCTASGFTFNMYEMSWVRQAPGKGLEWVSGISRRGFTTYYADSVKGRFTISRDNSKNTLYLQMNSLRAEDTAVYYCAKEPITYDLRYARFDYSGQGTLVTVSS

hIZCD40L-driven Human B Cell Proliferation EC50: 30 nM
B13: BMS3h-43-11 (other)
VH: B10 VH with Q39K, R54H, L105M, S113W

hIZCD40L-driven Human B Cell Proliferation EC50: 0.7 nM
B16: BMS3h-38-238 (other)
VH: EVQLLASGGGLVQPGGSLRLSCAASGFTFEEEEMIWVRQAPGKGLEWVSAISRSGYSTYYADSVKGRFTISRDNSKNTLYLQMNSLRAEDTAVYYCGKEPFRYDYWGQGTLVTVSS

hIZCD40L-driven Human B Cell Proliferation EC50: 0.4 nM
B17: BMS3h-38-237 (other)
VH: B16 VH with S54G, Y56W

More lines, now with the values behind:

B1: BMS3h-56-1 (other)
VH: B3 VH with Y102T, Q104E, E105D
hIZCD40L-driven Human B Cell Proliferation EC50: 7 nM

B2: BMS3h-56-203 (other)
VH: B3 VH with Y102F, Q104E
CHO-hCD40L-driven DC Activation IL-12 EC50: 3.7 nM | CHO-hCD40L-driven Human B Cell Proliferation EC50: 51 nM | T-B cell MLR EC50: 52 nM | hIZCD40L-driven Human B Cell Proliferation EC50: 0.45 nM

B7: BMS3h-41-2 (other)
VH: B6 VH with E9G, F27S, H32Y, V48I, P88A, Y95F, W106R
hIZCD40L-driven Human B Cell Proliferation EC50: 47 nM

B8: BMS3h-41-13 (other)
VH: B6 VH with G8A, E9G, T30A, H32Y, P88A, T110A
hIZCD40L-driven Human B Cell Proliferation EC50: 208 nM

B9: BMS3h-41-9 (other)
VH: B6 VH with S7P, E9G, H32Y, Q39K, L45M, Y105D
hIZCD40L-driven Human B Cell Proliferation EC50: 148 nM

B11: BMS3h-43-5 (other)
VH: B10 VH with M31T, S52G
hIZCD40L-driven Human B Cell Proliferation EC50: 180 nM

B12: BMS3h-43-3 (other)
VH: B10 VH with S75F, L105M, S113G
hIZCD40L-driven Human B Cell Proliferation EC50: 87 nM

B14: BMS3h-38-235 (other)
VH: B16 VH with S54N
hIZCD40L-driven Human B Cell Proliferation EC50: 0.4 nM

B15: BMS3h-38-3 (other)
VH: B16 VH with V48I, R53G, Y56G, Y103F
hIZCD40L-driven Human B Cell Proliferation EC50: 10 nM
